Results taken from patent publication US11807881B2, “Polypeptide, fusion polypeptide, and antibiotic against gram-negative bacteria comprising same” (priority 2020, dated 2023).

Experiments:
Campylobacter jejuni = assay: Spot test (halo zone); format: cell-based; design: key: ‘◯’ means production of the halo zone; conditions: C. jejuni KCTC 5327
From the text: (§1) In the present example, in order to investigate a target bacteria spectrum of the bacteriophage PBPA90 selected in the Examples 1.1 and 1.2 and endolysin LNT101 separated and purifying in the Example 1.3, the antibacterial activity against gram negative bacterium such as Pseudomonas aeruginosa ATCC13388, ATCC9027, ATCC10145, ATCC15692, ATCC15522, ATCC25619, ATCC27853, CCARM2134, CCARM2200, CCARM2029, CCARM2144, CCARM2298, CCARM2326, PR01957, E. coli ATCC8739, Enterobacter cloacae CCARM0252, Klebsiella pneumoniae KCTC2261, Klebsiella aerogenes CCARM16006, Campylobacter jejuni KCTC5327, Cronobacter sakazakii KCTC2949, Salmonella typhimurium ATCC14028, Salmonella enteritidis ATCC13076 was tested.
(§2) The target bacteria spectrum of the bacteriophage PBPA90 and endolysin LNT101 was confirmed by a spot test. For the spot test, bacterium sterilized in 4 ml top agar (1% Tryptone, 0.5% Yeast extract, 0.5% NaCl, 0.7% agar) of 1×10^11 CFU/200 μl were added and poured to a LB plate. After hardening the top agar, the bacteriophage PBPA90 10 μl (1×10^8 PFU/ml) or LNT101 10 μl (2 mg/ml) was spotted, and it was incubated at 37° C. for 18 hours.

Enterobacter cloacae = assay: Spot test (halo zone); format: cell-based; design: key: ‘◯’ means production of the halo zone; conditions: E. cloacae CCARM 0252
From the text: as §1, §2

Klebsiella aerogenes = assay: Spot test (halo zone); format: cell-based; design: key: ‘◯’ means production of the halo zone; conditions: K. aerugenes CCARM 16006
From the text: as §1, §2

Klebsiella pneumoniae = assay: Spot test (halo zone); format: cell-based; design: key: ‘◯’ means production of the halo zone; conditions: K. pneumoniae KCTC 2261
From the text: as §1, §2

Salmonella enteritidis = assay: Spot test (halo zone); format: cell-based; design: key: ‘◯’ means production of the halo zone; conditions: S. enteritidis ATCC 13076
From the text: as §1, §2

Salmonella typhimurium = assay: Spot test (halo zone); format: cell-based; design: key: ‘◯’ means production of the halo zone; conditions: S. typhimurium ATCC 14028
From the text: as §1, §2

Pseudomonas aeruginosa = assay: CFU reduction test (killing ability in vitro); format: cell-based
Description: For this, the endolysin LNT101 at a concentration of 0.1, 0.5, 1.0 μM and Pseudomonas aeruginosa (ATCC 13388) […] CFU were added so that the final volume was 200 μl to reaction buffer (20 mM Tris-Cl, pH 7.5) and they were left at 37° C. for […]. In 30 minutes, 1 hour and 2 hours, the number of colonies of Pseudomonas aeruginosa was confirmed, and the result was shown in FIG. 3.
In addition, that the LNT101 endolysin had the antibacterial ability in various gram negative bacterium was confirmed by a CFU reduction test, and the result was shown in Table 2 below.

[1] = system: Pseudomonas aeruginosa PA01; assay: Galleria mellonella Pseudomonas aeruginosa infected model, viability; format: in vivo; conditions: PA01 50 CFU/larva
Description: The Pseudomonas aeruginosa killing ability of the endolysin LNT101 was also confirmed in vivo. As an animal model for the in vivo effectivity evaluation, Galleria mellonella was used. The Galleria mellonella model was divided into the healthy group (non-infection group), Pseudomonas aeruginosa infected group (drug non-administration group), 2 LNT101 administration groups in which LNT101 was administered into the infection model, Colistin administration group in which colistin was administered into the Pseudomonas aeruginosa infected model, and combination administration group in which LNT101 and colistin were administered in combination into the Pseudomonas aeruginosa infected model to progress an experiment, and 10 of Galleria mellonella per each group was used.
The Pseudomonas aeruginosa infected model was prepared by infecting Pseudomonas aeruginosa PA01 at the LD80 concentration, 50 CFU/larva, and LNT101 was administered at 0.6 μg/larva (3 mg/Kg) and 6 μg/larva (30 mg/Kg), respectively. Colistin was administered at 0.5 μg/larva (2.5 mg/Kg), and for administration in combination, Colistin at 0.5 μg/larva (2.5 mg/Kg) and LNT101 at 6 μg/larva (30 mg/Kg) were administered. […] In particular, in the LNT101 6 μg/larva (30 mg/Kg) administration group, the viability of 30% was confirmed.

Huh-7 cell line = format: cell-based
Description: In vitro toxicity of the fusion polypeptide LNT103 was evaluated by cell cytotoxicity assay (WST assay) using Huh-7 cell line and hemolysis assay using sheep blood (MB cell).
The process of progressing the cell cytotoxicity assay was as follows. The Huh07 cell culture solution was prepared and aliquoted in an amount of […] per well in a 96 well plate, and it was cultured in a CO2 incubator for 24 hours. Then, PBS as a negative control and 1% (w/v) triton X-100 as a positive control were treated, and as an experimental group, the fusion polypeptide LNT103 was treated at a concentration of 0.25, 0.5, or 1 mg/ml, and then it was left in a CO2 incubator for 24 hours and 48 hours. Then, the cell viability was measured using D-Plus™ CCK cell viability assay kit (Dongin LS), and the result was shown in FIG. 18.

B1: LNT101: endolysin derived from bacteriophage PBPA90, amino acid sequence SEQ ID NO: 1 (259 aa), purified with 6× His tag (protein)
chain: MGTVLKRGDRGSAVEDLQMKLRVAGYAVSADGIFGGDTEKAVRDFQASKALVVDGKVGPATLAELAKSATVPAKWEAIPFPTANKSRSAAMPTLNAVGAMTGTDSRLLATFASIESAFDYTVKASTSSATGWFQFLDATWDDMIKAHGSKYGIPKDPTRALRKDPRANALMGAEFLKGNAAVLRPVINREPSDTDLYLAHFLGAGGAKKFLSADQKTLGEVLFPKPAKANPSIFSNKGVPRTLAEIYKLFEDKVSKHRA
modifications: 6xHis tag; synthetic_Endolysin LNT101
production of the halo zone (Campylobacter jejuni): ◯
production of the halo zone (Enterobacter cloacae): ◯
production of the halo zone (Klebsiella aerogenes): ◯
production of the halo zone (Klebsiella pneumoniae): ◯
production of the halo zone (Salmonella enteritidis): ◯
production of the halo zone (Salmonella typhimurium): ◯
killing ability against Pseudomonas aeruginosa (number of colonies) (Pseudomonas aeruginosa; ATCC 13388 10^6 CFU, 0.1, 0.5, 1.0 μM, 30 minutes, 1 hour and 2 hours, 37° C.): had the killing ability against Pseudomonas aeruginosa in all the tested treatment dose and time
CFU reduction (Pseudomonas aeruginosa; P. aeruginosa ATCC 13388): ◯ (‘◯’ means reduction of 0.5 log CFU or more through the CFU reduction assay)
CFU reduction (Pseudomonas aeruginosa; P. aeruginosa ATCC 15522): ◯ (‘◯’ means reduction of 0.5 log CFU or more through the CFU reduction assay)
CFU reduction (Pseudomonas aeruginosa; P. aeruginosa CCARM 2092): ◯ (‘◯’ means reduction of 0.5 log CFU or more through the CFU reduction assay)
CFU reduction (Pseudomonas aeruginosa; P. aeruginosa CCARM 2134): ◯ (‘◯’ means reduction of 0.5 log CFU or more through the CFU reduction assay)
CFU reduction (Pseudomonas aeruginosa; P. aeruginosa CCARM 2144): ◯ (‘◯’ means reduction of 0.5 log CFU or more through the CFU reduction assay)
CFU reduction (Pseudomonas aeruginosa; P. aeruginosa CCARM 2326): ◯ (‘◯’ means reduction of 0.5 log CFU or more through the CFU reduction assay)
CFU reduction (Pseudomonas aeruginosa; P. aeruginosa F141): ◯ (‘◯’ means reduction of 0.5 log CFU or more through the CFU reduction assay)
CFU reduction (Pseudomonas aeruginosa; P. aeruginosa PAO1): ◯ (‘◯’ means reduction of 0.5 log CFU or more through the CFU reduction assay)
viability of Galleria mellonella ([1]; LNT101 6 μg/larva (30 mg/Kg), 72 hours): 30%
viability of Galleria mellonella ([1]; LNT101 0.6 or 6 μg/larva, Colistin 0.5 μg/larva, observation for 72 hours): the viability was increased

B2: LNT103: fusion polypeptide [Cecropin A]-[linker (GSGSGS)]-[endolysin LNT102]; SEQ ID NO: 15 (MAS, His tag) used in the tests (protein)
chain: MASKWKLFKKIEKVGQNIRDGIIKAGPAVAVVGQATQIAKGSGSGSMGTVLKRGDRGSAVEDLQMKLNVAGYNLSADGIFGGDTEKAVRDVQAGAGLVVDGKVGPKTLYAIAKSATVPAKWEAIPFPTANKSRSAAMPTLNAVGAMTGVDSRLLATFASIESAFDYTVKAKTSSATGWFQFLDATWDDMIKAYGSKYGIPKDPTRALRKDPRANALMGAEFIKGNAAVLRPVINREPSDTDLYLAHFLGAGGAKKFLSADQKTLGEVLFPKPAKANPSIFSNKGVPRTLAEIYKLFEDKVSKHRALEHHHHHH
modifications: synthetic_Fusion Polypeptide LNT103 with MAS, His tag, and extra sequence
IC50 (cytotoxicity) (Huh-7 cell line): > 1000 µg/mL
